Assay results published in PMC10560287.

Target: GmILPA1-cYFP (soybean (Glycine max))
Assay: split reporter (BiFC, NanoBiT); BiFC with nYFP and cYFP fusions co-infiltrated into N. benthamiana leaves together with P19; confocal microscopy; leaves in white light or exposed to 1 h of UV-B (21 μmol m^-2 s^-1)

GmILPA1-cYFP (soybean (Glycine max)), sequence (main, as listed by the source): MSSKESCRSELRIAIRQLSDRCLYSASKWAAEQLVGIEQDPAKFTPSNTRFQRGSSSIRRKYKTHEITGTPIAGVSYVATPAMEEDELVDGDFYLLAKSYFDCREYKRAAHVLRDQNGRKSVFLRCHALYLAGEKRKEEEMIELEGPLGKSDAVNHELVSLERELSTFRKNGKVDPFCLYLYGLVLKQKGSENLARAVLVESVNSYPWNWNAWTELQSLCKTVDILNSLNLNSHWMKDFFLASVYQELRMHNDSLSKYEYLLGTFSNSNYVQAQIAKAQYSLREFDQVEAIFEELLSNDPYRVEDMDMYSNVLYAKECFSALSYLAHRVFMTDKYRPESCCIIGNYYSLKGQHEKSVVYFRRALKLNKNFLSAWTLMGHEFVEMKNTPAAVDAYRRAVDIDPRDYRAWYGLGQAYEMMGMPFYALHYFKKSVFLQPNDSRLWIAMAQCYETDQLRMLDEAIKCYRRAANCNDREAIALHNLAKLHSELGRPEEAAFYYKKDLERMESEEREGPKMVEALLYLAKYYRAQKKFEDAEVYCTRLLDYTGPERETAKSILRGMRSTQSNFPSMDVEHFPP

fold change of the relative BiFC fluorescence intensity in the cytoplasm, UV-B against white light: 3 fold
Substance: GmGA2ox-like-nYFP (enzyme)
